The data set concerns the molecule itself. Nature of the data set: crystal structure.

B1: matrix (M) protein from Lagos bat virus (natural protein)
chain: MNFLRKIVKNCKDEEIPKPGTPSAPPDDDDLWMPPPEYVPLTQIKGKENVRNFCINGEIKICSPNGYSFRILRHILKSFDNVYSGNRRLIGVVKVVIGLVLSASPVPEGMNWVYKLRRTLIFQWAESHGPLEGEELEYSQEITWDDEAEFVSLQIRVSAKQCHIQGRLWCINMNSKACQLWADMGLKTQQSQEDENTSLLLE
notes: also called LBV M; full-length LBV M
As to B1, the binding result is given as “binds”.

(Values after publication PMC2603668, “Rhabdovirus Matrix Protein Structures Reveal a Novel Mode of Self-Association” (PLoS Pathogens, 2008).)
